# Measurements reported in publication PMC10932606.
# Biological target: semiSWEET
# Test: native MS
substance,measurement,value
semiSWEET (natural protein),percent dimer,> 95%
same,stoichiometry N,2
